Measurements published in patent US6096512.
Read-outs that look alike come from different tables or passages of the source.

How the values were obtained:
[1] = molecular target: bovine apomucin (deglycosylated bovine submaxillary mucin) (bovine)
[2] = molecular target: bovine apomucin (deglycosylated bovine submaxillary mucin) (bovine); remark: listed apart in the source
[3] = molecular target: serine containing acceptor peptide …
[4] = molecular target: serine containing acceptor peptide …; remark: listed apart in the source

cloned full-length (membrane bound) bovine GalNAc-transferase expressed in Sf9 cells (enzyme)
Total activity (U), cell lysate [1]: 16.2 U

soluble, secreted recombinant bovine GalNAc-transferase GalNAcTs (enzyme)
specific activity of the purified enzyme preparation [2]: 2160 U/mg protein | Km [3]: 3.6 mM | Km [4]: 3.5 mM
